Reference: patent publication US20240150440A1 (LUMEN BIOSCIENCE, published 2024)
Read-outs that look alike come from different tables or passages of the source.

Columns and labels:
[1] = biological target: T1, recombinant SARS-CoV-2 RBD with C-terminal AviTag (SARS-CoV-2, UniProt P0DTC2 319-541)
[2] = biological target: T1, recombinant SARS-CoV-2 RBD with …; assay: ELISA, competition with coated ACE2-Fc for RBD
[3] = biological target: T1, recombinant SARS-CoV-2 RBD with …; remark: listed apart in the source
[4] = biological target: T1, recombinant SARS-CoV-2 RBD with …; remark: listed apart in the source
[5] = biological target: SARS-COV-2 Wuhan Reference RBD (SARS-CoV-2, UniProt P0DTC2 319-541); assay: ELISA, RBD coated
[6] = biological target: T1, recombinant SARS-CoV-2 RBD with …; assay: BLI, biotinylated RBD on streptavidin biosensors
[7] = biological target: T1, recombinant SARS-CoV-2 RBD with …; assay: ELISA, competition with coated ACE2-Fc for RBD [Cont. 7]
[8] = biological target: T1, recombinant SARS-CoV-2 RBD with …; remark: listed apart in the source
[9] = biological target: T1, recombinant SARS-CoV-2 RBD with …; assay: ELISA, competition with coated ACE2-Fc for RBD [Cont. 2]
[10] = biological target: T1, recombinant SARS-CoV-2 RBD with …; assay: BLI, biotinylated RBD on streptavidin biosensors [Cont. 8]
[11] = biological target: T1, recombinant SARS-CoV-2 RBD with …; assay: ELISA, competition with coated ACE2-Fc for RBD [Cont. 8]
[12] = biological target: T1, recombinant SARS-CoV-2 RBD with …; remark: listed apart in the source
[13] = biological target: T1, recombinant SARS-CoV-2 RBD with …; remark: listed apart in the source

B1: MBP-5HVZ-R2A-C5-H6 (VHH, not shown: large carriers; small tags and cut ends)
VHH: QVQLVESGGGLVQPGGSLRLSCAASGTWGNIQYLSWFRQAPGKRREFVAAITPNNGTNYADSVKGRFTISRDNAKNTVYLQMNSLKPEDTAVYYCTAVLWYTTKEGPYDYWGQGTQVTVSS
IC50 [1]: 13.3 nM

B2: PP1143 MBP-5HVZ-PAPA-R2b-D5-H6 (VHH)
VHH: QVQLVESGGGLVQPGGSLRLSCAASGYADEINMVHWYRQAPGKGREFVAAIASGGSTFYADSVKGRFTISRDNAKNTVYLQMNSLKPEDTAVYYCAAIPRPSLSYAHDYAYWGQGTQVTVSS
notes: Form: Dimer
IC50 [2]: 8.4 nM

B3: R2B-D5 monomer (PP805) (VHH, not shown: large carriers; small tags and cut ends)
VHH: QVQLVESGGGLVQPGGSLRLSCAASGYADEINMVHWYRQAPGKGREFVAAIASGGSTFYADSVKGRFTISRDNAKNTVYLQMNSLKPEDTAVYYCAAIPRPSLSYAHDYAYWGQGTQVTVSS
Kd [3]: 10 nM | koff [3]: 0.00226 s⁻¹ | kon [3]: 226000 M⁻¹ s⁻¹

B4: PP1898 Cerberbody (1-R2B-D5 and 2-S3b-C8) (other, not shown: large carriers; small tags and cut ends)
VHH 1: QVQLVESGGGLVQPGGSLRLSCAASGSIENIERMHWYRQAPGKQRELVAVIDSGGTTRYADSVKGRFTISRDNAKNTVYLQMNSLKPEDTAVYYCAAVWLTNAESTQEYWGQGTQVTVSS
VHH 2: QVQLVESGGGLVQPGGSLRLSCAASGYADEINMVHWYRQAPGKGREFVAAIASGGSTFYADSVKGRFTISRDNAKNTVYLQMNSLKPEDTAVYYCAAIPRPSLSYAHDYAYWGQGTQVTVSS
Kd [4]: 0.4 nM | koff [4]: 0.000218 s⁻¹ | kon [4]: 540000 M⁻¹ s⁻¹

B5: PP1155 MPB-scTRP-PAPA-R2b-D5-H6 (VHH)
VHH: QVQLVESGGGLVQPGGSLRLSCAASGYADEINMVHWYRQAPGKGREFVAAIASGGSTFYADSVKGRFTISRDNAKNTVYLQMNSLKPEDTAVYYCAAIPRPSLSYAHDYAYWGQGTQVTVSS
notes: Form: Trimer
IC50 [2]: 46.5 nM

B6: PP1131 MBP-4B0F-PAPA-R2b-D5-H6 (VHH)
VHH: QVQLVESGGGLVQPGGSLRLSCAASGYADEINMVHWYRQAPGKGREFVAAIASGGSTFYADSVKGRFTISRDNAKNTVYLQMNSLKPEDTAVYYCAAIPRPSLSYAHDYAYWGQGTQVTVSS
notes: Form: Heptamer
IC50 [2]: 14.5 nM

B7: MBP-R2C-F6-H6 (VHH, not shown: large carriers; small tags and cut ends)
VHH: QVQLVESGGGLVQPGGSLRLSCAASGRILAANIVHWYRQAPGKEREGVAGITTGGSNYYSDSVKGRFTISRDNAKNTVYLQMNSLKPEDTAVYYCNALGLGSASGSYESWGQGTQVTVSS
Kd [1]: ~3600 nM

B8: PP916 MBP-5HVZ-S3b-A8-H6 (VHH)
VHH: QVQLVESGGGLVQPGGSLRLSCAASGSIISRVKVHWFRQAPGKSREWVAGIDSGTASYYSDSVKGRFTISRDNAKNTVYLQMNSLKPEDTAVYYCAAENRGYGVDWGQGTQVTVSS
notes: Form: Dimer
EC50 [5]: 1.19 nM | Kd [6]: 12.1 nM | IC50 [7]: 2 nM

B9: MBP-R2C-G6-H6 (VHH, not shown: large carriers; small tags and cut ends)
VHH: QVQLVESGGGLVQPGGSLRLSCAASGSIYKYSDVHWFRQAPGKAREAVALLTGAGTTIYGDSVKGRFTISRDNAKNTVYLQMNSLKPEDTAVYYCAAGQGFKATRTFDSWGQGTQVTVSS
Kd [8]: ~3900 nM

B10: MBp-5HVZ-R2C-B3-H6 (VHH, not shown: large carriers; small tags and cut ends)
VHH: QVQLVESGGGLVQPGGSLRLSCAASGTYASYETIAWYRQAPGKQREKVARITGAGSSFYADSVKGRFTISRDNAKNTVYLQMNSLKPEDTAVYYCNADSIPPALRAANTGYWGQGTQVTVSS
IC50 [1]: 1.4 nM | Kd [1]: 33 nM

B11: PP1148 MBP-5HVZ-PAPA-R5a-C5-H6 (VHH)
VHH: QVQLVESGGGLVQPGGSLRLSCAASGDIFSINALHWFRQAPGKQREEVAAITSGGSTGYADSVKGRFTISRDNAKNTVYLQMNSLKPEDTAVYYCAAQQARGGLDSDYWGQGTQVTVSS
notes: Form: Dimer
EC50 [5]: 0.3 nM | IC50 [9]: 1.1 nM

B12: PP1136 MBP-4B0F-PAPA-R5a-C5-H6 (VHH)
VHH: QVQLVESGGGLVQPGGSLRLSCAASGDIFSINALHWFRQAPGKQREEVAAITSGGSTGYADSVKGRFTISRDNAKNTVYLQMNSLKPEDTAVYYCAAQQARGGLDSDYWGQGTQVTVSS
notes: Form: Heptamer
IC50 [9]: 1.8 nM

B13: PP1160 MPB-scTRP-PAPA-R5a-C5-H6 (VHH)
VHH: QVQLVESGGGLVQPGGSLRLSCAASGDIFSINALHWFRQAPGKQREEVAAITSGGSTGYADSVKGRFTISRDNAKNTVYLQMNSLKPEDTAVYYCAAQQARGGLDSDYWGQGTQVTVSS
notes: Form: Trimer
IC50 [9]: 2.9 nM

B14: MBP-5HVZ-R2D-A6-H6 (VHH, not shown: large carriers; small tags and cut ends)
VHH: QVQLVESGGGLVQPGGSLRLSCAASGSGASIGAMHWFRQAPGKGREWVASITSAGNTYYGDSVKGRFTISRDNAKNTVYLQMNSLKPEDTAVYYCNALAGANYESQWEEYNYWGQGTQVTVSS
IC50 [8]: 6.3 nM | Kd [8]: 19.6 nM

B15: MBP-5HVZ-R2E-D2-H6 (VHH, not shown: large carriers; small tags and cut ends)
VHH: QVQLVESGGGLVQPGGSLRLSCAASGHQLSTNATHWFRQAPGKNREFVASIGSGSSSYYADSVKGRFTISRDNAKNTVYLQMNSLKPEDTAVYYCTALGGDELDGMTYDYWGQGTQVTVSS
IC50 [8]: 6.8 nM | Kd [8]: 19.1 nM

B16: PP927 MBP-5HVZ-R1i-C8-H6 (VHH)
VHH: QVQLVESGGGLVQPGGSLRLSCAASGRQFGAWRMHWYRQAPGKQREWVAGITSGTSGNYADSVKGRFTISRDNAKNTVYLQMNSLKPEDTAVYYCAATSHTTYHAEYWGQGTQVTVSS
notes: Form: Dimer
EC50 [5]: 1.43 nM | Kd [10]: 25.2 nM | IC50 [11]: 111 nM

B17: PP1176 MBP-5HVZ-PAPA-R2a-F3-H6 (VHH)
VHH: QVQLVESGGGLVQPGGSLRLSCAASGSITSINWMHWFRQAPGKDREGVASISQTGRGSYADSVKGRFTISRDNAKNTVYLQMNSLKPEDTAVYYCAAASRTGTPYNYWGQGTQVTVSS
notes: Form: Dimer
EC50 [5]: 0.29 nM | IC50 [2]: 10.4 nM

B18: PP1177 MPB-scTRP-PAPA-R2a-F3-H6 (VHH)
VHH: QVQLVESGGGLVQPGGSLRLSCAASGSITSINWMHWFRQAPGKDREGVASISQTGRGSYADSVKGRFTISRDNAKNTVYLQMNSLKPEDTAVYYCAAASRTGTPYNYWGQGTQVTVSS
notes: Form: Trimer
IC50 [2]: 83.6 nM

B19: PP931 MBP-5HVZ-R5a-F5-H6 (VHH)
VHH: QVQLVESGGGLVQPGGSLRLSCAASGYHASILAMHWVRQAPGKEREWVASMTWSDMTQYSDSVKGRFTISRDNAKNTVYLQMNSLKPEDTAVYYCAATYVTRDRPWTHWGQGTQVTVSS
notes: Form: Dimer
EC50 [5]: 1.93 nM | Kd [10]: 11.9 nM | IC50 [11]: 5.6 nM

B20: PP1896 Cerberbody (2-R2B-D5 and 1-S3b-C8) (other, not shown: large carriers)
chain 1: QVQLVESGGGLVQPGGSLRLSCAASGYADEINMVHWYRQAPGKGREFVAAIASGGSTFYADSVKGRFTISRDNAKNTVYLQMNSLKPEDTAVYYCAAIPRPSLSYAHDYAYWGQGTQVTVSSHHHHHH
chain 2: QVQLVESGGGLVQPGGSLRLSCAASGSIENIERMHWYRQAPGKQRELVAVIDSGGTTRYADSVKGRFTISRDNAKNTVYLQMNSLKPEDTAVYYCAAVWLTNAESTQEYWGQGTQVTVSSTVILEYAHRLSQDILSDALQQWASHHHHHHHH
Kd [12]: < 0.001 nM | koff [12]: < 1e-07 s⁻¹ | kon [12]: 248000 M⁻¹ s⁻¹

B21: PP1897 Cerberbody (3-S3b-C8) (other, not shown: large carriers)
chain 1: QVQLVESGGGLVQPGGSLRLSCAASGSIENIERMHWYRQAPGKQRELVAVIDSGGTTRYADSVKGRFTISRDNAKNTVYLQMNSLKPEDTAVYYCAAVWLTNAESTQEYWGQGTQVTVSSHHHHHH
chain 2: QVQLVESGGGLVQPGGSLRLSCAASGSIENIERMHWYRQAPGKQRELVAVIDSGGTTRYADSVKGRFTISRDNAKNTVYLQMNSLKPEDTAVYYCAAVWLTNAESTQEYWGQGTQVTVSSTVILEYAHRLSQDILSDALQQWASHHHHHHHH
Kd [13]: 0.73 nM | koff [13]: 0.000382 s⁻¹ | kon [13]: 521000 M⁻¹ s⁻¹

B22: PP934 MBP-5HVZ-S3a-H2-H6 (VHH)
VHH: QVQLVESGGGLVQPGGSLRLSCAASGAAFSKNALHWFRQAPGKGREWVASITSGSGTQYMDSVKGRFTISRDNAKNTVYLQMNSLKPEDTAVYYCAALAYSGGYDYWGQGTQVTVSS
notes: Form: Dimer
EC50 [5]: 1.07 nM | Kd [10]: 18.4 nM | IC50 [11]: 2.2 nM

B23: PP1149 MBP-5HVZ-PAPA-R5a-E5-H6 (VHH)
VHH: QVQLVESGGGLVQPGGSLRLSCAASGYDFDILRMAWFRQAPGKEREMVAAITSAESVNYEDSVKGRFTISRDNAKNTVYLQMNSLKPEDTAVYYCATYDYTDDYGYASWGQGTQVTVSS
notes: Form: Dimer
EC50 [5]: 2.5 nM | IC50 [9]: 14.2 nM
